# Results from patent publication US20030165997, “Zinc finger domain libraries” (published 2003).
# B1: target 11 (dsDNA)
# DNA 1: TGGGGGTGA
# DNA 2: TCACCCCCA
# B2: GAGT probe (dsDNA)
# DNA 1: CCGGGTCGGGAGTGGGCGGTACCG
# DNA 2: TCGACGGTACCGCCCACTCCCGAC
# B3: ACAT probe (dsDNA)
# DNA 1: CCGGGTCGGACATGGGCGGTACCG
# DNA 2: TCGACGGTACCGCCCATGTCCGAC
# B4: target 3 (dsDNA)
# DNA 1: GCACAATGG
# DNA 2: CCATTGTGC
# B5: target 28 (dsDNA)
# DNA 1: GCGGAAGTTC
# DNA 2: GAACTTCCGC
# B6: target 2 (dsDNA)
# DNA 1: TGGGGGGACA
# DNA 2: TGTCCCCCCA
# B7: target 13 (dsDNA)
# DNA 1: GAGGTGGGAG
# DNA 2: CTCCCACCTC
# B8: target 16 (dsDNA)
# DNA 1: GGGGCGGGAT
# DNA 2: ATCCCGCCCC
# B9: target 15 (dsDNA)
# DNA 1: GAGGACAATG
# DNA 2: CATTGTCCTC
# B10: target 20 (dsDNA)
# DNA 1: GAGGGAGAAG
# DNA 2: CTTCTCCCTC
# B11: target 34 (dsDNA)
# DNA 1: GAGGACGTG
# DNA 2: CACGTCCTC
# B12: target 12 (dsDNA)
# DNA 1: GAGCAAGTAG
# DNA 2: CTACTTGCTC
# B13: target 26 (dsDNA)
# DNA 1: GGGAAAGAAC
# DNA 2: GTTCTTTCCC
# B14: target 19 (dsDNA)
# DNA 1: CGAGTTGCG
# DNA 2: CGCAACTCG
# B15: target 4 (dsDNA)
# DNA 1: GCGGCGGGGC
# DNA 2: GCCCCGCCGC
# B16: target 32 (dsDNA)
# DNA 1: GGGGAGAAA
# DNA 2: TTTCTCCCC
# B17: GCGT probe (dsDNA)
# DNA 1: CCGGGTCGCGCGTGGGCGGTACCG
# DNA 2: TCGACGGTACCGCCCACGCGCGAC
# How the values were obtained:
# ZFP 11 QSHT-RSHR-RDHT = ZFP 11 QSHT-RSHR-RDHT (synthetic); assay: cell_activity; HEK293 luciferase repression; details: tags: HA tag and NLS (P3 vector)
# Description: (§1) The in vivo activity assay for a particular three-finger protein was carried out as follows. HEK 293 cells were transfected with four plasmids: 14 ng of a plasmid expressing the particular three-finger protein; 14 ng of the reporter plasmid described above; 70 ng of a plasmid that expresses GAL4-VP 16; and 1.4 ng of a plasmid that expresses Renillar luciferase. The GAL4-VP 16 activates transcription of the minimal synthetic promoter in the reporter so that the repression effected by a particular three-finger protein could be clearly detected and compared to other three-finger proteins. The plasmid expressing Renillar luciferase provides a control of transfection efficiency.
# (§2) Lipofectamine (Gibco-BRL) was used for the transfection procedures. Cells were transfected at 30-50% confluency in wells of a 96 well plate. The cells were incubated for two days prior to harvesting for the luciferase assay. Then luciferase activities were measured using the Dual-Luciferase™ Reporter Assay System (Promega). The observed firefly luciferase activity was normalized using the observed level of Renilla luciferase. The extent of repression or “fold-repression” was calculated by dividing a value for normalized reporter expression in the absence of a zinc finger protein by a value for normalized reporter expression in the presence of the zinc finger protein.
# (§3) A total of 153 three-finger chimeric proteins were constructed from both the “zinc finger protein-first” and the “target site-first” approaches. These proteins were tested using the transient cotransfection assay described in Example 68.
# [1] = biological target: T1, Zif268 zinc finger protein (three fingers) (UniProt P08046 SEQ:1-89); assay: EMSA; Zn2+, Mg2+, pH 7.7, RT; yeast growth ++; 5.9-fold repression (Table 8)
# [2] = biological target: T1, Zif268 zinc finger protein (three …); assay: EMSA; Zn2+, Mg2+, pH 7.7, RT; no yeast growth; 1.3-fold repression (Table 8)
# ZFP 3 RDHT-QSNV2-QSSR1 = ZFP 3 RDHT-QSNV2-QSSR1 (synthetic); assay: cell_activity; HEK293 luciferase repression; details: tags: HA tag and NLS (P3 vector)
# Description: as §1, §2, §3
# ZFP 28 VSSR-QSNR3-RDER1 = ZFP 28 VSSR-QSNR3-RDER1 (synthetic); assay: cell_activity; HEK293 luciferase repression; details: tags: HA tag and NLS (P3 vector)
# Description: as §1, §2, §3
# ZFP 2 CSNR1-RSHR-RDHT = ZFP 2 CSNR1-RSHR-RDHT (synthetic); assay: cell_activity; HEK293 luciferase repression; details: tags: HA tag and NLS (P3 vector)
# Description: as §1, §2, §3
# ZFP 13 QSHR2-RDER1-RSNR = ZFP 13 QSHR2-RDER1-RSNR (synthetic); assay: cell_activity; HEK293 luciferase repression; details: tags: HA tag and NLS (P3 vector)
# Description: as §1, §2, §3
# ZFP 16 QSHR2-RDER1-RSHR = ZFP 16 QSHR2-RDER1-RSHR (synthetic); assay: cell_activity; HEK293 luciferase repression; details: tags: HA tag and NLS (P3 vector)
# Description: as §1, §2, §3
# ZFP 15 VSNV-CSNR1-RSNR = ZFP 15 VSNV-CSNR1-RSNR (synthetic); assay: cell_activity; HEK293 luciferase repression; details: tags: HA tag and NLS (P3 vector)
# Description: as §1, §2, §3
# ZFP 20 QSNR3-QSHR2-RSNR = ZFP 20 QSNR3-QSHR2-RSNR (synthetic); assay: cell_activity; HEK293 luciferase repression; details: tags: HA tag and NLS (P3 vector)
# Description: as §1, §2, §3
# ZFP 34 VSSR-HSNK-RSNR = ZFP 34 VSSR-HSNK-RSNR (Homo sapiens); assay: cell_activity; HEK 293 luciferase; details: tags: HA, NLS
# Description: as §1, §2, §3
# ZFP 12 QSSR1-QSNV2-RSNR = ZFP 12 QSSR1-QSNV2-RSNR (synthetic); assay: cell_activity; HEK293 luciferase repression; details: tags: HA tag and NLS (P3 vector)
# Description: as §1, §2, §3
# ZFP 26 QSNR3-QSNV2-RSHR = ZFP 26 QSNR3-QSNV2-RSHR (synthetic); assay: cell_activity; HEK293 luciferase repression; details: tags: HA tag and NLS (P3 vector)
# Description: as §1, §2, §3
# ZFP 19 RDER1-VSSR-QSHT = ZFP 19 RDER1-VSSR-QSHT (synthetic); assay: cell_activity; HEK293 luciferase repression; details: tags: HA tag and NLS (P3 vector)
# Description: as §1, §2, §3
# ZFP 4 RSHR-RDER1-RDER1 = ZFP 4 RSHR-RDER1-RDER1 (synthetic); assay: cell_activity; HEK293 luciferase repression; details: tags: HA tag and NLS (P3 vector)
# Description: as §1, §2, §3
# ZFP 32 QSNV2-RSNR-RDHT = ZFP 32 QSNV2-RSNR-RDHT (Homo sapiens); assay: cell_activity; HEK 293 luciferase; details: tags: HA, NLS
# Description: as §1, §2, §3
# [3] = biological target: T1, Zif268 zinc finger protein (three …); assay: EMSA; 20 mM Tris pH 7.7, 120 mM NaCl, 5 mM MgCl2, 20 uM ZnSO4, RT; yeast growth +++; 28-fold repression in human cells (Table 8)
# Chain of ZFP 12 QSSR1-QSNV2-RSNR (synthetic) (chain, as listed by the source): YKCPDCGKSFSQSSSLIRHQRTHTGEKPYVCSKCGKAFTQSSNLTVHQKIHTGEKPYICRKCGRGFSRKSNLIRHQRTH
# Chain of ZFP 34 VSSR-HSNK-RSNR (Homo sapiens) (chain, as listed by the source): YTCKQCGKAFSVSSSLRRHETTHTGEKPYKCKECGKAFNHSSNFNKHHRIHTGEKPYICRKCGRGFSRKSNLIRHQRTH
# Chain of ZFP 28 VSSR-QSNR3-RDER1 (synthetic) (chain, as listed by the source): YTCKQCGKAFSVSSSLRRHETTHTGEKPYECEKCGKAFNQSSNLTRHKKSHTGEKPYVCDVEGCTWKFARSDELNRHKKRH
# Chain of ZFP 13 QSHR2-RDER1-RSNR (synthetic) (chain, as listed by the source): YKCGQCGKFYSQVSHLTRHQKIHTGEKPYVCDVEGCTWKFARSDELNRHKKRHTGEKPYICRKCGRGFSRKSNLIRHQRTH
# Chain of ZFP 20 QSNR3-QSHR2-RSNR (synthetic) (chain, as listed by the source): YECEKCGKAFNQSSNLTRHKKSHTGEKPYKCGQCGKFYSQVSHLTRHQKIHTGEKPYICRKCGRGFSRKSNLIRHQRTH
# Chain of ZFP 26 QSNR3-QSNV2-RSHR (synthetic) (chain, as listed by the source): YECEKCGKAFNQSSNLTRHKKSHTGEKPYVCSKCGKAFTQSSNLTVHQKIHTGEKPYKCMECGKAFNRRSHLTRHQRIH
# Chain of ZFP 32 QSNV2-RSNR-RDHT (Homo sapiens) (chain, as listed by the source): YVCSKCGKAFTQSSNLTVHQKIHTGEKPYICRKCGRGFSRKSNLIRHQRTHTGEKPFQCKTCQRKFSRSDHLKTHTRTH
# Chain of ZFP 19 RDER1-VSSR-QSHT (synthetic) (chain, as listed by the source): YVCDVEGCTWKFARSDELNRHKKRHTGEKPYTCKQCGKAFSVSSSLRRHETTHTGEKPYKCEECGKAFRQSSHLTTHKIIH
# Chain of ZFP 4 RSHR-RDER1-RDER1 (synthetic) (chain, as listed by the source): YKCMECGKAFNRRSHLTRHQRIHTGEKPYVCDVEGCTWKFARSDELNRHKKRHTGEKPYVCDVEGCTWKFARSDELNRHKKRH
# Chain of ZFP 16 QSHR2-RDER1-RSHR (synthetic) (chain, as listed by the source): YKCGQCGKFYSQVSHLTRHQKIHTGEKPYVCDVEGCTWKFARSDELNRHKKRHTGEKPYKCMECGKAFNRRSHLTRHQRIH
# Chain of ZFP 11 QSHT-RSHR-RDHT (synthetic) (chain, as listed by the source): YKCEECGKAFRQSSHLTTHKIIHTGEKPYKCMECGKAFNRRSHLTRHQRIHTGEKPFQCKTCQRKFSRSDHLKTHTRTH
# Chain of ZFP 2 CSNR1-RSHR-RDHT (synthetic) (chain, as listed by the source): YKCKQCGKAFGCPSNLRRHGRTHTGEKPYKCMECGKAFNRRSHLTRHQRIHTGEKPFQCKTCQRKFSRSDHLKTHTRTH
# Chain of ZFP 3 RDHT-QSNV2-QSSR1 (synthetic) (chain, as listed by the source): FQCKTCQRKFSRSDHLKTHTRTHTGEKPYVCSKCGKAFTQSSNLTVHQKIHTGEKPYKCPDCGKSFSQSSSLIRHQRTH
# Chain of ZFP 15 VSNV-CSNR1-RSNR (synthetic) (chain, as listed by the source): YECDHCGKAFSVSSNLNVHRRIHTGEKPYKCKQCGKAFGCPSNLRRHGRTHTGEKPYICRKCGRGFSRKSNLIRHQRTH
binder,measurement,setting,value
B1,activity,ZFP 11 QSHT-RSHR-RDHT,3 fold repression
B2,Kd,[1],0.17 nM
B3,Kd,[2],1.3 nM
B4,activity,ZFP 3 RDHT-QSNV2-QSSR1,4 fold repression
B5,activity,ZFP 28 VSSR-QSNR3-RDER1,2 fold repression
B6,activity,ZFP 2 CSNR1-RSHR-RDHT,4.5 fold repression
B7,activity,ZFP 13 QSHR2-RDER1-RSNR,2.8 fold repression
B8,activity,ZFP 16 QSHR2-RDER1-RSHR,2.3 fold repression
B9,activity,ZFP 15 VSNV-CSNR1-RSNR,2.5 fold repression
B10,activity,ZFP 20 QSNR3-QSHR2-RSNR,2.1 fold repression
B11,activity,ZFP 34 VSSR-HSNK-RSNR,1.9 fold repression
B12,activity,ZFP 12 QSSR1-QSNV2-RSNR,2.9 fold repression
B13,activity,ZFP 26 QSNR3-QSNV2-RSHR,2 fold repression
B14,activity,ZFP 19 RDER1-VSSR-QSHT,2.1 fold repression
B15,activity,ZFP 4 RSHR-RDER1-RDER1,3.8 fold repression
B16,activity,ZFP 32 QSNV2-RSNR-RDHT,1.9 fold repression
B17,Kd,[3],0.024 nM
